The values that follow come from US20070065446, “Anti-bambi antibody and diagnostic or remedy for colon cancer and liver cancer” (SCIMEDIA LTD., published 2007).

Data set [1] has as its target T1, TCF4 (TCF7L2) residues 265-496, GST fusion (Homo sapiens, UniProt Q9NQB0-8 Q9NQB0-8:265-496). Description: EMSA; competed by excess unlabeled TBE. Particulars: tags: N-terminal GST (pGEX-5X-1), E. coli DH5alpha; label: radioactive. The text has this:
(§1) Five TCF-4 binding sequences on intron 1 were synthesized (TBE 1-5) and radioactively labeled, and shift assay was used to investigate whether they bound with GST-TCF.

For another data set, the target named is GST (UniProt P08515 P08515:1-218). Nature of the data set: EMSA; GST control. The conditions noted are these: tags: pGEX-5X-1 (Pharmacia), E. coli DH5alpha; label: radioactive.
Description: as §1

Data set [2] deals with T1, TCF4 (TCF7L2) residues 265-496, GST …. Nature of the data set: competition; mutant unlabeled competitor does not compete in EMSA. The conditions noted are these: tags: N-terminal GST (pGEX-5X-1), E. coli DH5alpha.
Description: as §1
The oligonucleotide used in preparing the mutant hBAMBI-luciferase construct was used as the mutant competitive molecule.

T1 sequence (Q9NQB0 288-519, one chain of several): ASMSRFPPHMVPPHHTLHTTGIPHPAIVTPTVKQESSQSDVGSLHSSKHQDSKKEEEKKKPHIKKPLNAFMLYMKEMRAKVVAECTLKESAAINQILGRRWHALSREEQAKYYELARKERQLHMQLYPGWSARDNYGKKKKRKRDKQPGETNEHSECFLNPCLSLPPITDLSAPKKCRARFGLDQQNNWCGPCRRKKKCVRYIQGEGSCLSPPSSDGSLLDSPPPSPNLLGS
GST, sequence (P08515 whole entry, one chain of several): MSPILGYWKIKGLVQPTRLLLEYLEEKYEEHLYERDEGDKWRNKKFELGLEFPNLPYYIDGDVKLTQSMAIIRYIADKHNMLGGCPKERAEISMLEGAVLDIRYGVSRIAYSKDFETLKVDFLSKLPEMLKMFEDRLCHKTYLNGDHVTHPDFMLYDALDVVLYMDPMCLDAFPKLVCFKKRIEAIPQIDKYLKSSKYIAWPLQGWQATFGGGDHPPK

B1: TBE4 (dsDNA)
DNA 1: CTGGAAATATCAAAGGCGGGCAGAAC
DNA 2: GTTCTGCCCGCCTTTGATATTTCCAG
On to B1, for which the binding result in data set [1] is “binds”; with GST, “no binding”.

B2: TBE1 mutant (dsDNA)
DNA 1: GCTGCAGAGGATTGATTAGCGGTAG
DNA 2: CTACCGCTAATCAATCCTCTGCAGC
Turning to B2, the binding result in data set [2] is recorded as “no binding”.

B3: TBE1 (dsDNA)
DNA 1: GCTGCAGAGGCTTTGTTAGCGGTAG
DNA 2: CTACCGCTAACAAAGCCTCTGCAGC
For the molecule B3, the results for the binding result (in data set [1]; in the data set with GST) were “binds” and “no binding”, respectively.

B4: TBE5 (dsDNA)
DNA 1: CTAAAAGTTCATGCCTTTGAATTTGGG
DNA 2: CCCAAATTCAAAGGCATGAACTTTTAG
As for B4, the binding result was “binds” in data set [1] and “no binding” in the data set with GST.

B5: TBE2 (dsDNA)
DNA 1: CTCTGTGTCTCTTTGAATGTATCTCTG
DNA 2: CAGAGATACATTCAAAGAGACACAGAG
In the case of B5, the binding result in data set [1] is on record as “binds”; with GST, “no binding”.

B6: TBE2 mutant (dsDNA)
DNA 1: CTCTGTGTCTAGTTAAATGTATCTCTG
DNA 2: CAGAGATACATTTAACTAGACACAGAG
Regarding B6, the binding result in data set [2] is listed as “no binding”.

B7: TBE5 mutant (dsDNA)
DNA 1: CTAAAAGTTCATGCAGTTAAATTTGGG
DNA 2: CCCAAATTTAACTGCATGAACTTTTAG
On to B7, for which the binding result in data set [2] was “no binding”.

B8: TBE4 mutant (dsDNA)
DNA 1: CTGGAAATATAGAAAGCGGGCAGAAC
DNA 2: GTTCTGCCCGCTTTCTATATTTCCAG
As for B8, the binding result in data set [2] was “no binding”.

B9: TBE3 mutant (dsDNA)
DNA 1: CTCTAAGTGTAGTTATATCTCTGAATG
DNA 2: CATTCAGAGATATAACTACACTTAGAG
Consider B9, for which the binding result in data set [2] was “no binding”.

B10: TBE3 (dsDNA)
DNA 1: CTCTAAGTGTCTTTGTATCTCTGAATG
DNA 2: CATTCAGAGATACAAAGACACTTAGAG
With B10, the binding result in data set [1] is “binds”; in the data set with GST, “no binding”.
